# Test results taken from PMC9482650, “Quantitative fragmentomics allow affinity mapping of interactomes” (Nature Communications, 2022).
# B1: HNRNPK, P61978;P61978-2 (peptide)
# chain: VKQYADVEGF
# B2: SLC9A3, P48764 (peptide)
# chain: PAALPESTHM
# Target: T1, GRIP1_4, Q9Y3R0
# T1 sequence (Q9Y3R0 467-571, limits assumed, looked up): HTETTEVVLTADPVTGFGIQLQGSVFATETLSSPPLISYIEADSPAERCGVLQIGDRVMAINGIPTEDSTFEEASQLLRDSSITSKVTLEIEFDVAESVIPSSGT
# Test: holdup assay
# Set-up: key: below the threshold = too weak to quantify, mostly under pKd 3.1 to 4
# Conditions: plain residues with an end cap or a label only (N-terminal biotin on a linker: ado-ado)
row,Binder,pKd
1,B1,below the threshold
2,B2,below the threshold

# Target: FRMPD4, Q14CM0
# Test: holdup assay
# Set-up: key: below the threshold = too weak to quantify, mostly under pKd 3.1 to 4
# Conditions: plain residues with an end cap or a label only (N-terminal biotin on a linker: ado-ado)
# Chain of FRMPD4, Q14CM0 (Q14CM0 67-160): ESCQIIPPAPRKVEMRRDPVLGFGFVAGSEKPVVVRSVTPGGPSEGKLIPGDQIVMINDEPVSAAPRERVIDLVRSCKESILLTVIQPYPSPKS
row,Binder,pKd
1,B1,below the threshold
2,B2,below the threshold

# Target: T2, LNX2_2, Q8N448
# T2 sequence (Q8N448 334-432, limits assumed, looked up): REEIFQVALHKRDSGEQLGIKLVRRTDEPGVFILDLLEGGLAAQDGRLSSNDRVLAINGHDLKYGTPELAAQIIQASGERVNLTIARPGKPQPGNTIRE
# Test: holdup assay
# Set-up: key: below the threshold = too weak to quantify, mostly under pKd 3.1 to 4
# Conditions: plain residues with an end cap or a label only (N-terminal biotin on a linker: ado-ado)
row,Binder,pKd
1,B1,below the threshold
2,B2,below the threshold

# Target: T3, LNX2_3, Q8N448
# T3 sequence (Q8N448 463-564, limits assumed, looked up): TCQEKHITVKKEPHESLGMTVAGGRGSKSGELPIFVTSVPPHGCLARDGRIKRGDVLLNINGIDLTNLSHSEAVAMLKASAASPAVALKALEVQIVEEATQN
# Test: holdup assay
# Set-up: key: below the threshold = too weak to quantify, mostly under pKd 3.1 to 4
# Conditions: plain residues with an end cap or a label only (N-terminal biotin on a linker: ado-ado)
row,Binder,pKd
1,B1,below the threshold
2,B2,below the threshold

# Target: T4, RADIL, Q96JH8
# T4 sequence (Q96JH8 971-1071, limits assumed, looked up): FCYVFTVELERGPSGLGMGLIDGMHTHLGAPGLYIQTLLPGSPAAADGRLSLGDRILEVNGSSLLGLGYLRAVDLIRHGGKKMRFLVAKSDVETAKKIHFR
# Test: holdup assay
# Set-up: key: below the threshold = too weak to quantify, mostly under pKd 3.1 to 4
# Conditions: plain residues with an end cap or a label only (N-terminal biotin on a linker: ado-ado)
row,Binder,pKd
1,B1,below the threshold
2,B2,below the threshold

# Target: T5, NHERF3_1, Q5T2W1
# T5 sequence (Q5T2W1 4-100, limits assumed, looked up): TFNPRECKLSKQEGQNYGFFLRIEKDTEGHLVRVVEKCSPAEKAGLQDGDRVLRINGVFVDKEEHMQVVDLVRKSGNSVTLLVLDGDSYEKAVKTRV
# Test: holdup assay
# Set-up: key: below the threshold = too weak to quantify, mostly under pKd 3.1 to 4
# Conditions: plain residues with an end cap or a label only (N-terminal biotin on a linker: ado-ado)
row,Binder,pKd
1,B2,5.37

# Target: T6, MPP2, Q14168
# T6 sequence (Q14168 180-250, limits assumed, looked up): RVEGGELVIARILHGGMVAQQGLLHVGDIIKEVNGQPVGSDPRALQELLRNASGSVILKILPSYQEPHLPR
# Test: holdup assay
# Set-up: key: below the threshold = too weak to quantify, mostly under pKd 3.1 to 4
# Conditions: plain residues with an end cap or a label only (N-terminal biotin on a linker: ado-ado)
row,Binder,pKd
1,B1,below the threshold
2,B2,below the threshold

# Target: T7, LIN7B, Q9HAP6
# T7 sequence (Q9HAP6 88-185, limits assumed, looked up): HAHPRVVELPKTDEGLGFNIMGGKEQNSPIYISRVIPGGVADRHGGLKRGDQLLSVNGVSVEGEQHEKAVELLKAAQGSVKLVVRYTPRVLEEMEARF
# Test: holdup assay
# Set-up: key: below the threshold = too weak to quantify, mostly under pKd 3.1 to 4
# Conditions: plain residues with an end cap or a label only (N-terminal biotin on a linker: ado-ado)
row,Binder,pKd
1,B2,below the threshold

# Target: IL16_4, Q14005
# Test: holdup assay
# Set-up: key: below the threshold = too weak to quantify, mostly under pKd 3.1 to 4
# Conditions: plain residues with an end cap or a label only (N-terminal biotin on a linker: ado-ado)
# Chain of IL16_4, Q14005 (Q14005 1229-1329): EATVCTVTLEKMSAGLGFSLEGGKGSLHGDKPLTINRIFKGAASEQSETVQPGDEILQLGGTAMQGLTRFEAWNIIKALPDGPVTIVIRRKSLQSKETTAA
row,Binder,pKd
1,B2,below the threshold

# Target: SNX27, Q96L92
# Test: holdup assay
# Set-up: key: below the threshold = too weak to quantify, mostly under pKd 3.1 to 4
# Conditions: plain residues with an end cap or a label only (N-terminal biotin on a linker: ado-ado)
row,Binder,pKd
1,B1,below the threshold
2,B2,below the threshold

# Target: IL16_3, Q14005
# Test: holdup assay
# Set-up: key: below the threshold = too weak to quantify, mostly under pKd 3.1 to 4
# Conditions: plain residues with an end cap or a label only (N-terminal biotin on a linker: ado-ado)
# Chain of IL16_3, Q14005 (Q14005 1107-1207): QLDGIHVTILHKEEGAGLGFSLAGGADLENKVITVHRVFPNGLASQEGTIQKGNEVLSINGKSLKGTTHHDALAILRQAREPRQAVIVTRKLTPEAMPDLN
row,Binder,pKd
1,B1,below the threshold
2,B2,below the threshold

# Target: Inadl_2, Q8NI35
# Test: holdup assay
# Set-up: key: below the threshold = too weak to quantify, mostly under pKd 3.1 to 4
# Conditions: plain residues with an end cap or a label only (N-terminal biotin on a linker: ado-ado)
# Chain of Inadl_2, Q8NI35 (Q8NI35 238-335): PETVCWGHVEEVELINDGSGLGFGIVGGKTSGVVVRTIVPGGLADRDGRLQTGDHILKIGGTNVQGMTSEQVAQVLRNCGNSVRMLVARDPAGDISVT
row,Binder,pKd
1,B1,below the threshold
2,B2,below the threshold

# Target: T8, ARHGEF11, O15085
# T8 sequence (O15085 42-136, limits assumed, looked up): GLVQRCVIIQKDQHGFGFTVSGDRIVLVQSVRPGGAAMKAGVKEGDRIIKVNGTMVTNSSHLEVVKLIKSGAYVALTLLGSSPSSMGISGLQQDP
# Test: holdup assay
# Set-up: key: below the threshold = too weak to quantify, mostly under pKd 3.1 to 4
# Conditions: plain residues with an end cap or a label only (N-terminal biotin on a linker: ado-ado)
row,Binder,pKd
1,B1,below the threshold
2,B2,below the threshold

# Target: MAGI2_2, Q86UL8
# Test: holdup assay
# Set-up: key: below the threshold = too weak to quantify, mostly under pKd 3.1 to 4
# Conditions: plain residues with an end cap or a label only (N-terminal biotin on a linker: ado-ado)
# Chain of MAGI2_2, Q86UL8 (Q86UL8 410-522): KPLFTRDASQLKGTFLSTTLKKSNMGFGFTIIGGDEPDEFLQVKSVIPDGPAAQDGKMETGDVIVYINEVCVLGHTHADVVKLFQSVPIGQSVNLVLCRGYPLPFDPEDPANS
row,Binder,pKd
1,B2,below the threshold

# Target: T9, DVL3, Q92997
# T9 sequence (Q92997 244-331, limits assumed, looked up): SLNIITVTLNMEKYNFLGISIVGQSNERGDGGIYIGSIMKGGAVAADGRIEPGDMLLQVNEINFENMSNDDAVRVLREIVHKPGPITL
# Test: holdup assay
# Set-up: key: below the threshold = too weak to quantify, mostly under pKd 3.1 to 4
# Conditions: plain residues with an end cap or a label only (N-terminal biotin on a linker: ado-ado)
row,Binder,pKd
1,B1,below the threshold
2,B2,below the threshold

# Target: LAP2, Q96RT1
# Test: holdup assay
# Set-up: key: below the threshold = too weak to quantify, mostly under pKd 3.1 to 4
# Conditions: plain residues with an end cap or a label only (N-terminal biotin on a linker: ado-ado)
# Chain of LAP2, Q96RT1 (Q96RT1 other isoform, or with tags, fused parts or gaps): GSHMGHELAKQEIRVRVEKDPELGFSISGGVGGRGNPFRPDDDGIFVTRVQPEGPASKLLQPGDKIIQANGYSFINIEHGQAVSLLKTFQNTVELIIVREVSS
row,Binder,pKd
1,B1,below the threshold
2,B2,below the threshold

# Target: TJP2_1, Q9UDY2
# Test: holdup assay
# Set-up: key: below the threshold = too weak to quantify, mostly under pKd 3.1 to 4
# Conditions: plain residues with an end cap or a label only (N-terminal biotin on a linker: ado-ado)
# Chain of TJP2_1, Q9UDY2 (Q9UDY2 24-128): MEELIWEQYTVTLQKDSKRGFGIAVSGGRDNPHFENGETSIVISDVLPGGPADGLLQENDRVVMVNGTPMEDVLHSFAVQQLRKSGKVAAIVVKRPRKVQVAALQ
row,Binder,pKd
1,B1,below the threshold
2,B2,below the threshold

# Target: GRIP2_5, Q9C0E4
# Test: holdup assay
# Set-up: key: below the threshold = too weak to quantify, mostly under pKd 3.1 to 4
# Conditions: plain residues with an end cap or a label only (N-terminal biotin on a linker: ado-ado)
# Chain of GRIP2_5, Q9C0E4 (Q9C0E4 544-642): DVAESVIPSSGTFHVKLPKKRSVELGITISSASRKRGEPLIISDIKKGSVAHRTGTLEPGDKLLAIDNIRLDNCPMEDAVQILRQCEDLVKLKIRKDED
row,Binder,pKd
1,B1,below the threshold
2,B2,below the threshold

# Target: PARD3_3, Q8TEW0
# Test: holdup assay
# Set-up: key: below the threshold = too weak to quantify, mostly under pKd 3.1 to 4
# Conditions: plain residues with an end cap or a label only (N-terminal biotin on a linker: ado-ado)
# Chain of PARD3_3, Q8TEW0 (Q8TEW0 582-685): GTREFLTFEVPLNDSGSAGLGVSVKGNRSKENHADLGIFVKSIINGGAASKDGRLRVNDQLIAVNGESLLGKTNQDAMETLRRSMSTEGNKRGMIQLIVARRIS
row,Binder,pKd
1,B1,below the threshold
2,B2,below the threshold

# Target: T10, GRIP1_5, Q9Y3R0
# T10 sequence (Q9Y3R0 568-668, limits assumed, looked up): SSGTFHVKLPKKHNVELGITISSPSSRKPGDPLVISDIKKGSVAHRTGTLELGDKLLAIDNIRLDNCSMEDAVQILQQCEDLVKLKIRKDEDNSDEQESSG
# Test: holdup assay
# Set-up: key: below the threshold = too weak to quantify, mostly under pKd 3.1 to 4
# Conditions: plain residues with an end cap or a label only (N-terminal biotin on a linker: ado-ado)
row,Binder,pKd
1,B1,below the threshold
2,B2,below the threshold

# Target: GIPC2, Q8TF65
# Test: holdup assay
# Set-up: key: below the threshold = too weak to quantify, mostly under pKd 3.1 to 4
# Conditions: plain residues with an end cap or a label only (N-terminal biotin on a linker: ado-ado)
# Chain of GIPC2, Q8TF65 (Q8TF65 112-203): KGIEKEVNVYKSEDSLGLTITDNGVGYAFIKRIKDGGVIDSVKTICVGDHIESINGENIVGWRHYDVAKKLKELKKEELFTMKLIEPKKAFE
row,Binder,pKd
1,B1,below the threshold
2,B2,below the threshold

# Target: DLG1_2, Q12959
# Test: holdup assay
# Set-up: key: below the threshold = too weak to quantify, mostly under pKd 3.1 to 4
# Conditions: plain residues with an end cap or a label only (N-terminal biotin on a linker: ado-ado)
# Chain of DLG1_2, Q12959 (Q12959 314-412): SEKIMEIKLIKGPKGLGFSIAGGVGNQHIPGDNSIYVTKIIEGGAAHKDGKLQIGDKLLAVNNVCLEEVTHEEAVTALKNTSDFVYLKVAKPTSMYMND
row,Binder,pKd
1,B2,below the threshold

# Target: T11, DLG3_3, Q92796
# T11 sequence (Q92796 374-475, limits assumed, looked up): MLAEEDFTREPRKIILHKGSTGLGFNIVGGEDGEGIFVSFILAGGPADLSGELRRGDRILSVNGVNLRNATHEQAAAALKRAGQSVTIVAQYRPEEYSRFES
# Test: holdup assay
# Set-up: key: below the threshold = too weak to quantify, mostly under pKd 3.1 to 4
# Conditions: plain residues with an end cap or a label only (N-terminal biotin on a linker: ado-ado)
row,Binder,pKd
1,B1,below the threshold
2,B2,below the threshold

# Target: MAST2, Q6P0Q8
# Test: holdup assay
# Set-up: key: below the threshold = too weak to quantify, mostly under pKd 3.1 to 4
# Conditions: plain residues with an end cap or a label only (N-terminal biotin on a linker: ado-ado)
# Chain of MAST2, Q6P0Q8 (Q6P0Q8 1099-1202): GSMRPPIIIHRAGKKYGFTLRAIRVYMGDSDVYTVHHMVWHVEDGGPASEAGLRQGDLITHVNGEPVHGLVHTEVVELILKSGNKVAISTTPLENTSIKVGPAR
row,Binder,pKd
1,B2,5.35

# Target: T12, TIAM2, Q8IVF5
# T12 sequence (Q8IVF5 885-986, limits assumed, looked up): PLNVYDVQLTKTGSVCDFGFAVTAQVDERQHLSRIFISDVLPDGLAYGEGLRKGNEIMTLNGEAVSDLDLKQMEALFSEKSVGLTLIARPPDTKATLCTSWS
# Test: holdup assay
# Set-up: key: below the threshold = too weak to quantify, mostly under pKd 3.1 to 4
# Conditions: plain residues with an end cap or a label only (N-terminal biotin on a linker: ado-ado)
row,Binder,pKd
1,B1,3.94
2,B2,below the threshold

# Target: NOS1, P29475
# Test: holdup assay
# Set-up: key: below the threshold = too weak to quantify, mostly under pKd 3.1 to 4
# Conditions: plain residues with an end cap or a label only (N-terminal biotin on a linker: ado-ado)
# Chain of NOS1, P29475 (P29475 9-101): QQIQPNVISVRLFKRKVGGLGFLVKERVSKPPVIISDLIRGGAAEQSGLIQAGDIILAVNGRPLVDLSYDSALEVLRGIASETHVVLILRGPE
row,Binder,pKd
1,B1,below the threshold
2,B2,below the threshold
